Results reported in the supplement of paper PMC9233669.
Variants at the floor of the assay were thinned out.

What was measured:
biotinyl-Trp-oxazolone = assay: self-aminoacylation, catalytic enhancement (BWO) (fold over background); higher = more active; k-Seq, kA / k0A0; sequences stand for … in GGGAAUGGAUCCACAUCUACGAAUUC…UUCACUGCAGACUUGACGAAGCUG
Procedure, shortened: (§1)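 Each biotinyl-aminoacyl-oxazolone, at 2–1250 μM, was incubated with mutagenized RNA pools (0.43 μM) carrying a 21-nt variable region. The 50 μL reactions contained HEPES/NaCl/KCl/MgCl2/CaCl2 buffer with 5% acetonitrile at pH 6.9–7.0 and ran for 90 minutes at room temperature. After streptavidin capture, RNA was measured by qPCR in triplicate and by Illumina sequencing, and catalytic enhancement was calculated as median kA over the uncatalyzed rate from a pseudo-first-order fit of per-sequence fraction reacted.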

biotinyl-Val-oxazolone = assay: self-aminoacylation, catalytic enhancement (BVO) (fold over background); higher = more active; k-Seq, kA / k0A0; sequences stand for … in GGGAAUGGAUCCACAUCUACGAAUUC…UUCACUGCAGACUUGACGAAGCUG
Procedure, shortened: as §1

biotinyl-Leu-oxazolone = assay: self-aminoacylation, catalytic enhancement (BLO) (fold over background); higher = more active; k-Seq, kA / k0A0; sequences stand for … in GGGAAUGGAUCCACAUCUACGAAUUC…UUCACUGCAGACUUGACGAAGCUG
Procedure, shortened: as §1

biotinyl-Phe-oxazolone = assay: self-aminoacylation, catalytic enhancement (BFO) (fold over background); higher = more active; k-Seq, kA / k0A0; sequences stand for … in GGGAAUGGAUCCACAUCUACGAAUUC…UUCACUGCAGACUUGACGAAGCUG
Procedure, shortened: as §1

biotinyl-Ile-oxazolone = assay: self-aminoacylation, catalytic enhancement (BIO) (fold over background); higher = more active; k-Seq, kA / k0A0; sequences stand for … in GGGAAUGGAUCCACAUCUACGAAUUC…UUCACUGCAGACUUGACGAAGCUG
Procedure, shortened: as §1

biotinyl-Met-oxazolone = assay: self-aminoacylation, catalytic enhancement (BMO) (fold over background); higher = more active; k-Seq, kA / k0A0; sequences stand for … in GGGAAUGGAUCCACAUCUACGAAUUC…UUCACUGCAGACUUGACGAAGCUG
Procedure, shortened: as §1

Row | Sequence | self-aminoacylation (biotinyl-Trp-oxazolone) | self-aminoacylation (biotinyl-Val-oxazolone) | self-aminoacylation (biotinyl-Leu-oxazolone) | self-aminoacylation (biotinyl-Phe-oxazolone) | self-aminoacylation (biotinyl-Ile-oxazolone) | self-aminoacylation (biotinyl-Met-oxazolone)
1 | AAAAUUGCUAAUAGUCGCAAG [Fam3.1 aminoacylation ribozyme variant] | 3.04 | 1.73 | 1.78 | 2.58 | 1.93 | 1.33
2 | AAAUAUGCUAAUAGUCGCAAG [Fam3.1 aminoacylation ribozyme variant] | 2.25 | 1.55 | 1.44 | 2.27 | 2.03 | 1.45
3 | AAAUUUGCUAAUAGUCGCUAG [Fam3.1 aminoacylation ribozyme variant] | 2.84 | 1.58 | 1.38 | 2.81 | 1.73 | 1.22
4 | AACUGUGCUAAUAGUCGCAAG [Fam3.1 aminoacylation ribozyme variant] | 2.34 | 1.61 | 2.35 | 2.41 | 2.14 | 1.81
5 | AACUUUGCUAAUAGCCGCAAG [Fam3.1 aminoacylation ribozyme variant] | 2.14 | 1.93 | 2.23 | 2.77 | 2.25 | 2.28
6 | AACUUUGCUAAUAGUCGAAAG [Fam3.1 aminoacylation ribozyme variant] | 2.01 | 1.87 | 2.47 | 2.63 | 2.25 | 2.31
7 | AACUUUGCUAAUAGUCGCAAA [Fam3.1 aminoacylation ribozyme variant] | 2.36 | 2.31 | 3.39 | 13.6 | 2.8 | 3.32
8 | AACUUUGCUAAUAGUCGUAAG [Fam3.1 aminoacylation ribozyme variant] | 2.33 | 1.28 | 1.59 | 3.97 | 1.44 | 1.21
9 | AACUUUGCUAAUCGUCGCAAG [Fam3.1 aminoacylation ribozyme variant] | 2.15 | 1.89 | 2.66 | 9.09 | 1.93 | 2.21
10 | AACUUUGCUUAUAGUCGCAAG [Fam3.1 aminoacylation ribozyme variant] | 2.98 | 2.2 | 2.98 | 3.75 | 2.58 | 3.18
11 | AACUUUGUUAAUAGUCGCAAG [Fam3.1 aminoacylation ribozyme variant] | 2.76 | 2.06 | 2.47 | 3.96 | 2.29 | 2.26
12 | AAGACCCUGGUCAUCGAGUGA [Fam2.1 aminoacylation ribozyme variant] | 9.36 | 4.66 | 10.2 | 21.6 | 4.58 | 9.05
13 | AAGAUCGCUAAUAGUCGCAAG [Fam3.1 aminoacylation ribozyme variant] | 1.96 | 1.51 | 2.08 | 3.04 | 1.86 | 1.79
14 | AAGAUUGCGAAUAGUCGCAAG [Fam3.1 aminoacylation ribozyme variant] | 2.46 | 1.71 | 1.33 | 1.72 | 1.47 | 1.17
15 | AAGAUUGCUAAGAGUCGCAAG [Fam3.1 aminoacylation ribozyme variant] | 2.56 | 1.29 | 1.3 | 1.73 | 1.41 | 1.41
16 | AAGAUUGCUAAUAGUCUCAAG [Fam3.1 aminoacylation ribozyme variant] | 1.18 | 1.08 | 1.09 | 1.48 | 1.1 | 0.751
17 | AAGAUUGCUACUAGUCGCAAG [Fam3.1 aminoacylation ribozyme variant] | 1.98 | 1.32 | 1.73 | 2.44 | 1.55 | 1.27
18 | AAGAUUUCUAAUAGUCGCAAG [Fam3.1 aminoacylation ribozyme variant] | 2.17 | 1.45 | 1.49 | 3.12 | 1.81 | 1.71
19 | AAGCCUGCUAAUAGUCGCAAG [Fam3.1 aminoacylation ribozyme variant] | 11.1 | 1.77 | 1.64 | 37.3 | 1.86 | 1.61
20 | AAGCUUGCCAAUAGUCGCAAG [Fam3.1 aminoacylation ribozyme variant] | 3.62 | 2.42 | 2.23 | 3.44 | 2.31 | 2.48
21 | AAGCUUGCUAAUAGUCACAAG [Fam3.1 aminoacylation ribozyme variant] | 1.28 | 1.35 | 1.65 | 4.35 | 1.64 | 1.5
22 | AAGGUUCCUAAUAGUCGCAAG [Fam3.1 aminoacylation ribozyme variant] | 1.43 | 1.39 | 1.5 | 1.62 | 1.61 | 1.64
23 | AAGGUUGCAAAUAGUCGCAAG [Fam3.1 aminoacylation ribozyme variant] | 1.66 | 1.08 | 1.2 | 1.44 | 1.41 | 1.02
24 | AAGGUUGCUAAUAAUCGCAAG [Fam3.1 aminoacylation ribozyme variant] | 1.59 | 1.02 | 1.19 | 1.47 | 1.41 | 1.11
25 | AAGGUUGCUAAUAGUCGAAAG [Fam3.1 aminoacylation ribozyme variant] | 2.33 | 1.44 | 0.938 | 6.22 | 1.51 | 1.36
26 | AAGGUUGCUAAUAGUCGCAAA [Fam3.1 aminoacylation ribozyme variant] | 1.4 | 1.42 | 1.63 | 1.51 | 1.86 | 1.28

Row | Sequence | self-aminoacylation (biotinyl-Trp-oxazolone) | self-aminoacylation (biotinyl-Val-oxazolone) | self-aminoacylation (biotinyl-Leu-oxazolone) | self-aminoacylation (biotinyl-Phe-oxazolone) | self-aminoacylation (biotinyl-Ile-oxazolone) | self-aminoacylation (biotinyl-Met-oxazolone)
27 | AAGGUUGCUAAUAGUCGCAAU [Fam3.1 aminoacylation ribozyme variant] | 1.61 | 1.46 | 1.68 | 3.18 | 1.99 | 1.81
28 | AAGGUUGCUAAUAGUGGCAAG [Fam3.1 aminoacylation ribozyme variant] | 0.638 | 0.79 | 0.977 | 0.712 | 0.698 | 0.863
29 | AAGGUUGCUAAUCGUCGCAAG [Fam3.1 aminoacylation ribozyme variant] | 2.14 | 1.2 | 1.09 | 3.36 | 1.27 | 1.07
30 | AAGGUUGCUCAUAGUCGCAAG [Fam3.1 aminoacylation ribozyme variant] | 1.5 | 1.25 | 1.63 | 4.12 | 1.46 | 1.57
31 | AAGUACGCUAAUAGUCGCAAG [Fam3.1 aminoacylation ribozyme variant] | 3.1 | 1.8 | 2.38 | 6.76 | 1.94 | 1.59
32 | AAGUAUGCUAAUAGGCGCAAG [Fam3.1 aminoacylation ribozyme variant] | 1.58 | 1.18 | 1.08 | 0.856 | 0.992 | 0.748
33 | AAGUAUGCUAAUAGUCCCAAG [Fam3.1 aminoacylation ribozyme variant] | 1.54 | 1.16 | 1.02 | 3.66 | 1.14 | 1.18
34 | AAGUAUGCUAAUAGUCGCAAA [Fam3.1 aminoacylation ribozyme variant] | 1.7 | 1.96 | 1.26 | 3.99 | 1.82 | 1.67
35 | AAGUAUGCUAAUAGUCGCAAC [Fam3.1 aminoacylation ribozyme variant] | 1.23 | 0.942 | 1.28 | 2.19 | 1.22 | 1.2
36 | AAGUAUGCUAGUAGUCGCAAG [Fam3.1 aminoacylation ribozyme variant] | 1.12 | 1.35 | 0.756 | 2.22 | 1.26 | 1.22
37 | AAGUCAGCUAAUAGUCGCAAG [Fam3.1 aminoacylation ribozyme variant] | 3.06 | 2 | 2.22 | 5.28 | 1.94 | 1.83
38 | AAGUCUGCUAAUAGCCGCAAG [Fam3.1 aminoacylation ribozyme variant] | 3.25 | 1.02 | 0.989 | 8.57 | 1.11 | 1.13
39 | AAGUCUGCUAAUAGUCGAAAG [Fam3.1 aminoacylation ribozyme variant] | 6.05 | 1.04 | 1.52 | 16.8 | 1.1 | 1.84
40 | AAGUCUGCUAAUAGUCGCAAC [Fam3.1 aminoacylation ribozyme variant] | 0.655 | 1.06 | 1.39 | 1.39 | 1.03 | 1.04
41 | AAGUCUGCUAAUAGUCGCCAG [Fam3.1 aminoacylation ribozyme variant] | 3.43 | 1.32 | 1.04 | 1.8 | 1.1 | 1.34
42 | AAGUCUGCUAAUCGUCGCAAG [Fam3.1 aminoacylation ribozyme variant] | 1.94 | 1.01 | 1.15 | 4.49 | 0.996 | 1.36
43 | AAGUGUACUAAUAGUCGCAAG [Fam3.1 aminoacylation ribozyme variant] | 1.2 | 1.51 | 1.2 | 1.74 | 1.4 | 1.17
44 | AAGUGUCCUAAUAGUCGCAAG [Fam3.1 aminoacylation ribozyme variant] | 0.664 | 0.995 | 0.952 | 0.985 | 1.18 | 0.945
45 | AAGUGUGCGAAUAGUCGCAAG [Fam3.1 aminoacylation ribozyme variant] | 1.38 | 1.82 | 1.76 | 2.28 | 1.72 | 1.79
46 | AAGUGUGCUAAGAGUCGCAAG [Fam3.1 aminoacylation ribozyme variant] | 2.15 | 0.87 | 1.13 | 5.24 | 1.11 | 1.15
47 | AAGUGUGCUAAUAUUCGCAAG [Fam3.1 aminoacylation ribozyme variant] | 2.22 | 1.53 | 1.51 | 1.63 | 1.92 | 1.58
48 | AUUCACCCAGCUCAUCGGGUG [Fam2.2 aminoacylation ribozyme variant] |  | 2.19 | 2.43 | 6.9 | 2.73 | 2.49
49 | CCACACUUCAAGCAUUCCGUC [Fam1B.1 aminoacylation ribozyme variant] | 3.14 | 3 | 2.51 |  | 3.19 | 2.55
50 | CUACGUCAAACAAUCGGCCUG [Fam1A.1 aminoacylation ribozyme variant] | 4.49 | 2.84 | 2.69 |  | 2.56 | 2.29
51 | CUUCACCUAGGUCAUCGGGCG [Fam2.2 aminoacylation ribozyme variant] | 4.39 | 2.97 | 2.75 |  | 2.36 | 3.57
